How the values were obtained:
[1] = target: FMRP RNA-WT (KH1 WT / KH2 RNA-KO, KH1-2 di-domain) (human (hFMRP), UniProt Q06787 216-425, K299D;N300D;del331-396); assay: NMR titration; unit prefix lost in text (printed M), uM inferred; NMR titrations: 50 uM 15N-protein, 10 mM phosphate pH 6.9, 40 mM NaCl, 0.5 mM TCEP, protein:RNA 1:0 to 1:12; temperature not given; details: protein: recombinant; tags: N-terminal 6xHis, cleaved with HRV 3C; single strand
[2] = target: FMRP RNA-AE (KH1 GKKG / KH2 RNA-KO, KH1-2 di-domain) (human (hFMRP), UniProt Q06787 216-425, T236K;H237K;K299D;N300D;del331-396); assay: NMR titration; Kd value only in figure; NMR titrations: 50 uM 15N-protein, 10 mM phosphate pH 6.9, 40 mM NaCl, 0.5 mM TCEP, protein:RNA 1:0 to 1:12; temperature not given; details: protein: recombinant; tags: N-terminal 6xHis, cleaved with HRV 3C; single strand

Row | Binder | Kd [1] [µM] | binding signal [2]
1 | UGGAC (ssRNA) | 418 ± 57.9 | –
2 | UAGAC (ssRNA) | – | 2.5 fold weaker than UGGAC
3 | GAGCC (ssRNA) | – | ~3 fold weaker than GAGAC
4 | GAGAC (ssRNA) | – | ~3 fold tighter than GAGCC
